Measurements taken from paper PMC8336894 (Genes & Development, 2021).

Biological target: T1, CRY1 (human (endogenous in HEK293), UniProt Q16526 1-586)
T1 sequence (looked up): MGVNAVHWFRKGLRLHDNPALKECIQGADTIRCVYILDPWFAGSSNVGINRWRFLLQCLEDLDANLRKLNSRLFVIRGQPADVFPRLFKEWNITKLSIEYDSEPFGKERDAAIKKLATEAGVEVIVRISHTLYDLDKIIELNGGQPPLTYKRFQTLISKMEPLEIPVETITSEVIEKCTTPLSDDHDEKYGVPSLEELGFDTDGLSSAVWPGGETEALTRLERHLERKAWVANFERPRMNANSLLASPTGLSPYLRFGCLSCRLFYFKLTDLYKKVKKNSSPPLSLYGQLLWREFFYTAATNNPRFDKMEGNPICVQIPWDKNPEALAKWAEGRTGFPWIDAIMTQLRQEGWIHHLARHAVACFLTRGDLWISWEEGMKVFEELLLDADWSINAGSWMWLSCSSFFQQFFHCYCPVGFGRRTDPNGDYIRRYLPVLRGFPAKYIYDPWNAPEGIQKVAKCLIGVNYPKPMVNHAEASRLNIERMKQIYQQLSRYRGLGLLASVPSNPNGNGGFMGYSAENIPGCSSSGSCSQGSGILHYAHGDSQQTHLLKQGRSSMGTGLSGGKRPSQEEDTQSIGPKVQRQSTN
Experiment: co-IP

B1: BMAL1-luciferase fusion protein (natural protein)
chain: not shown
- fold luciferase activity in the precipitate over the IgG control: ~3 fold
